Target: T1, endogenous Vps11 (HOPS subunit) (rat, UniProt D3ZTB4 2-941)
T1 construct: whole, on cells; Endogenous protein detected in situ with an anti-Vps11 antibody; also called vacuolar protein sorting-associated protein 11 homolog
T1 sequence: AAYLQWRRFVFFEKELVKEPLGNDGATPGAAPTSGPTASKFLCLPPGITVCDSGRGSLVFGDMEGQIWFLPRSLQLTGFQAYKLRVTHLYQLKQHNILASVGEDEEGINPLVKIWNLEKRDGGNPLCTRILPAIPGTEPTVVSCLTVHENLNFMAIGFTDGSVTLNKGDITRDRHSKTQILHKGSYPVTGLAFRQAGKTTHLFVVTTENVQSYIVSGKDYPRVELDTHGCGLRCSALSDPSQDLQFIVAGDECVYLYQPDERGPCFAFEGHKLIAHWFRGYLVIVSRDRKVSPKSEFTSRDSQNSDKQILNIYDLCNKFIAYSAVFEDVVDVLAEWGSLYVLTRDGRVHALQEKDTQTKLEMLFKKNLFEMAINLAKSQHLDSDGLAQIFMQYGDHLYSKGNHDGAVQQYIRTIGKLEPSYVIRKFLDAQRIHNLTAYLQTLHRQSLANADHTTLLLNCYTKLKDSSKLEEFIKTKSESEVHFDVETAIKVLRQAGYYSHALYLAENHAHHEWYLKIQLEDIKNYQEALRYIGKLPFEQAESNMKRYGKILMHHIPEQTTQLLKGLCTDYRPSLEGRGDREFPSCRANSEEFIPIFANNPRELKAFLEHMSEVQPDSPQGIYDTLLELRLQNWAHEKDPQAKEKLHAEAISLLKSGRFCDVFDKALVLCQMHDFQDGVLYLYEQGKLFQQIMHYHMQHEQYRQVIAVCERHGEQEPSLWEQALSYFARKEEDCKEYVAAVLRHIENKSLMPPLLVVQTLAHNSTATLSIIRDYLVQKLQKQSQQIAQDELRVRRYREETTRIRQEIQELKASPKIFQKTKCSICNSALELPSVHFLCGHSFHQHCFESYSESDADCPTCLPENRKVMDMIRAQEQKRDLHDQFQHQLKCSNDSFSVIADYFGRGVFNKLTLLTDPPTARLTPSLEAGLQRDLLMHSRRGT
Assay: proximity ligation assay (in situ co-IP) in transfected hepatic cells, baseline (OA) and 1 h post-EPA
Experimental: The A18-C3 cells were cultured in DMEM (Invitrogen) supplemented with fetal bovine serum (20%), penicillin (50 U/mL), streptomycin (50 μg/mL, Invitrogen) and Geneticin/G418 (500 μg/mL, Gibco) at 37° C. in 5% CO₂. Transfection was conducted when cells were 60-70% confluence. Appropriate plasmids were mixed with FuGENE HP extreme reagent (Roche Diagnostic), according to manufacturer's protocol, and incubated for 30 min. […] In silencing experiments, appropriate siRNAs were transfected into cells using the X-treme GENE siRNA regent (Roche Diagnostic).
One h post-EPA treatment, the cells were fixed, permeabilized and incubated with an anti-RFP antibody together with proper anti-Vps11, -Vps39, and -Vps41 antibodies. The proximity ligation was achieved using the Duolink secondary PLA probes (Olink AB) that detects substrate formation between the two antibodies as described previously³⁸.

binding result: no binding
B1: mCherry-tagged Arl8b^T34N (other)
chain: MLALISRLLDWFRSLFWKEEMELTLVGLQYSGKNTFVNVIASGQFSEDMIPTVGFNMRKVTKGNVTIKIWDIGGQPRFRSMWERYCRGVNAIVYMIDAADREKIEASRNELHNLLDKPQLQGIPVLVLGNKRDLPNALDEKQLIEKMNLSAIQDREICCYSISCKEKDNIDITLQWLIQHSKSRRS
notes: Fusion protein expressed by plasmid transfection inside McA-RH7777 (A18-C3) hepatic cells and detected in situ with an anti-RFP antibody; also called ^mCherryArl8b^T34N; RFP-tagged Arl8b^T34N; not shown: C-terminal mCherry tag and its RDP linker

Reference: patent US20190125827A1 (UNIVERSITY OF OTTAWA, published 2019)
